Blank lines part the entries; values can stand above or below the binder they belong to.
Columns and labels:
[1] = target: T1, Fas (R&D Systems) (UniProt P25445 26-173, limits assumed); test: ELISA, coated antigen 50 ng/mL
T1 construct: Bought reagent coated at 50 ng/mL
T1 sequence (looked up): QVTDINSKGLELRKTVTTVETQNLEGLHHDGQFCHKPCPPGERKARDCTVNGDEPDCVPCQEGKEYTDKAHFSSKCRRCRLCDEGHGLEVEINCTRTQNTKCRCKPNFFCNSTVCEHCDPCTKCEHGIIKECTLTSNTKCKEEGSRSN

[2] = target: T2, DcR1 (R&D Systems) (UniProt O14798 26-221, limits assumed); test: ELISA, coated antigen 50 ng/mL
T2 construct: Bought reagent coated at 50 ng/mL; also called TRAIL-R3
T2 sequence (looked up): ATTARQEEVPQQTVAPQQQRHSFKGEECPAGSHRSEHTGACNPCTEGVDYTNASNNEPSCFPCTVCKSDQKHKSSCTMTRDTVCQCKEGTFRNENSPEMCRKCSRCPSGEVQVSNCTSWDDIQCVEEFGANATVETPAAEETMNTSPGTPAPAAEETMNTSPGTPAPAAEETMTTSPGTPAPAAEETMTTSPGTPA

[3] = target: T3, DcR2 (R&D Systems) (UniProt Q9UBN6 56-211, limits assumed); test: ELISA, coated antigen 50 ng/mL
T3 construct: Bought reagent coated at 50 ng/mL; also called TRAIL-R4
T3 sequence (looked up): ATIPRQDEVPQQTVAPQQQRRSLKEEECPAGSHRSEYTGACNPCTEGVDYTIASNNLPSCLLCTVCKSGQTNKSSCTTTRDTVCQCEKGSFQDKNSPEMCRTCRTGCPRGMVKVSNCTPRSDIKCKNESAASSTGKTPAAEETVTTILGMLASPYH

[4] = target: T4, DR4 (R&D Systems) (UniProt O00220 24-239, limits assumed); test: ELISA, coated antigen 50 ng/mL
T4 construct: Bought reagent coated at 50 ng/mL; also called TRAIL-R1

[5] = target: T5, recombinant TRAIL (R&D Systems) (UniProt P50591 114-281); test: ELISA, coated antigen 100 ng/mL
T5 construct: Bought reagent, used coated in the ELISA and soluble at 100 ng/mL on H4 cells; also called Apo2L; TRAIL ligand

[6] = target: T6, FasL (Tebu-bio) (UniProt P48023 134-281, limits assumed); test: ELISA, coated antigen 100 ng/mL
T6 construct: Bought reagent coated at 100 ng/mL
T6 sequence (looked up): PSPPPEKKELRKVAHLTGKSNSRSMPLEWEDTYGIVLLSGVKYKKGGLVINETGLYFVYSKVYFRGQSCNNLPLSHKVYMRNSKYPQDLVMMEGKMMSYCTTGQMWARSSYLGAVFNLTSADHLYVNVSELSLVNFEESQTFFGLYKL

binding result [1]: no binding (tested: 1 µg/mL)
binding result [2]: no binding (tested: 1 µg/mL)
binding result [3]: no binding (tested: 1 µg/mL)
binding result [4]: no binding (tested: 1 µg/mL)
binding result [5]: no binding (tested: 1 µg/mL)
binding result [6]: no binding (tested: 1 µg/mL)
B1: mDR5-05 (antibody, V domains shown)
VH: EVQLQQSGAELVKPGASVKLFCTASGFNIKDTHIHWVKQRPEQGLEWIGRIDPANGNTEYDPKFQGKATIRVDTSSDTAYLQLSSLTSEDTAVHYCARWGTNVYFAYWGQGTSVTVSS
VL: DIQLTQSPAIMSASPGEKVTISCSASSSVSYMYWYQQKPGSSPKPWIYRTSNLASGVPGRFSGSGSGTSYSLTISSMEAEDAATYYCQQYHSYPPTFGGGTKLEIK
notes: mouse IgG1 is implied

binding result [1]: no binding (tested: 1 µg/mL)
binding result [2]: no binding (tested: 1 µg/mL)
binding result [3]: no binding (tested: 1 µg/mL)
binding result [4]: no binding (tested: 1 µg/mL)
binding result [5]: no binding (tested: 1 µg/mL)
binding result [6]: no binding (tested: 1 µg/mL)
B2: mDR5-01 (antibody, V domains shown)
VH: EVQLQQSGAEFVKPGASVKLSCTASGFNIKDTFIHWVKQRPEQGLDWIGRIDPANGNTKYDPKFQGKATETTDTSSNTAYLQLSSLTSEDTAVYYCVRGLYTYYFDYWGQGTSVTVSS
VL: DIVLTQSPATLSVTPGDSVSLSCRASQSISNNLHWYQQKSHESPRLLIKFASQSISGIPSRFSGSGSGADFTLIINSVETEDFGMYFCQQGNSWPYTFGGGTKLEIK
